Test results: patent publication US20220348651A1, “ENTPD2 ANTIBODIES, COMBINATION THERAPIES, AND METHODS OF USING THE ANTIBODIES AND COMBINATION THERAPIES” (Novartis AG, priority 2019, published 2022)

Assays:
mouse ENTPD2 = biological target: T1, mouse ENTPD2 (Mus musculus, UniProt O55026); test: Antibody specificity: binding to mouse ENTPD2; conditions: Mouse ENTPD2
T1 construct: residues 29-462 of mouse or rat ENTPD2 (the extracellular domain); mouse IgK signal peptide (N); His6; made in house; host or cells: FreeStyle 293-F cells, transient transfection
T1 sequence (O55026 29-462): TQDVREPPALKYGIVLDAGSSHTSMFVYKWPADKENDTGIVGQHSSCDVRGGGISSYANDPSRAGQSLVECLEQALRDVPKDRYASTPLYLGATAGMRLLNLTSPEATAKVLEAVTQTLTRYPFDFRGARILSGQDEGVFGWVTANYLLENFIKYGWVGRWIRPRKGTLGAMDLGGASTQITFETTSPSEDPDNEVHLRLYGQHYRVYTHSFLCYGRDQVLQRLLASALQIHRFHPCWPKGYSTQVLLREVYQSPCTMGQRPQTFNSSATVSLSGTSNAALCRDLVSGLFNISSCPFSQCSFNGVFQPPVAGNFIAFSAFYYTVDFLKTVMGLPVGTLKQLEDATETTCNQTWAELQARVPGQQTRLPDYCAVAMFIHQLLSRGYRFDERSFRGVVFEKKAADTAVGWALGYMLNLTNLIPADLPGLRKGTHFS
From the text: Antibody specificity for mAbl-mAblO was confirmed. […] Antibodies mAb8, mAb9, and mAb10 show weak affinity to mouse ENTPD2. None of the selected antibodies bind to rat ENTPD2.

H520 cells = test: Cross reactivity: FACS binding to H520 cells (ENTPD3 and ENTPD8 expression); set-up: species or system human; conditions: 50 nM antibody
Method: (§1) FACS screening: Specific binding of candidate antibodies to endogenously expressed ENTPD2 was assessed by flow cytometry. Cells were rinsed thoroughly with 1×PBS and treated with Accutase (Millipore #SCR005) to lift from growth plates and resuspended at approximately 1×10^5 cells/90 μL in 1× FACS buffer (2% FBS+0.1% NaN3 in PBS). In a 96-well U-bottom plate, 10 μL of 10× antibody solution in FACS buffer was pre-seeded and 90 μL of cell suspension was added. Cell were incubated for 30 minutes at 4° C., washed 1× with cold PBS and resuspended in 100 μL of 1:500 secondary antibody 1× FACS buffer (Allophycocyanin conjugated F(ab′)2 goat anti-human IgG, Fcγ specific; Jackson Immunoresearch, Cat#109-136-098). After additional incubation for 15 min at 4° C., cells were washed twice with PBS and resuspended in 100 μL of 1×FACS buffer with 4 μg/mL propidium iodide (Life Technologies, Cat#P3566). Geometric mean fluorescence intensity was calculated on live single cells using FlowJo software.
H520 cells were identified as a cancer cell line with ENTPD3 (Ct 25) and ENTPD8 (Ct 26) expression by Taqman and were used for selectivity screening.

[1] = tested on: cynomologus (cyno) ENTPD2; test: Biacore (SPR) affinity to cyno ENTPD2 ECD; assay type: binding, cynomolgus monkey; conditions: 25° C.
Chain of cynomologus (cyno) ENTPD2 (as listed by the source): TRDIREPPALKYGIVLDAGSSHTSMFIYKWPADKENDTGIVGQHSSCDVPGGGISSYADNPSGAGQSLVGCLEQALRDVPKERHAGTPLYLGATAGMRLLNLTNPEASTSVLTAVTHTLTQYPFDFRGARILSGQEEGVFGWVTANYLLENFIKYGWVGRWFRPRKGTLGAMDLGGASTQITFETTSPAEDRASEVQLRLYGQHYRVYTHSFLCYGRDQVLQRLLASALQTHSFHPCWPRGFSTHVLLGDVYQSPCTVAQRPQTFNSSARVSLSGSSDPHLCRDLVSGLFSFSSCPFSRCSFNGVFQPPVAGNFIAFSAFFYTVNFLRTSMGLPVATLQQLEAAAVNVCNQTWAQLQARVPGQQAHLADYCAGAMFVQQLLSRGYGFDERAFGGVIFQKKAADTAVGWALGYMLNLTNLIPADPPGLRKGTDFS
Method: (§2) Biacore Screening: Affinity was measured by determining the kinetic rate constants using surface plasmon resonance (SPR) on a Biacore T200 or T100 with the T200 sensitivity upgrade instrument (Biacore, GE Healthcare). Antibodies were captured on CM5 sensor chips (Biacore, GE Healthcare) prepared with a mouse anti-human IgG Fc antibody (ThermoFisher catalogue #05-4200) amine coupled to the surface. […] ENTPD2 analytes were allowed to associate for 180 s and dissociate for up to 1800 s depending on the off-rate of the antibody at a flow rate of 30 μL/min. The running buffer was PBS pH 7.2 (prepared from a Corning 10X stock, cat#46-013-CM)+0.05% Tween 20. Regeneration was accomplished with 30 s injections of 3 or 4 M MgCl2 to remove all the captured antibody and remaining complex from the surface, after which fresh antibody was captured. The raw data were analyzed using Biacore T200 Evaluation Software version 1.0 and fit to a 1:1 binding model, with all parameters set to fit globally except for RI, which was set to fit locally.

human ENTPD2 = biological target: T2, human ENTPD2 (Homo sapiens, UniProt Q9Y5L3); test: Biacore (SPR) affinity to human ENTPD2 ECD; assay type: binding; conditions: 25° C.
T2 construct: residues 29-462 of human or cyno ENTPD2 were cloned into expression vector; GP67 signal peptide (N); made in house; host or cells: High Five (Trichoplusia ni) insect cells, baculovirus
T2 sequence (Q9Y5L3 29-462): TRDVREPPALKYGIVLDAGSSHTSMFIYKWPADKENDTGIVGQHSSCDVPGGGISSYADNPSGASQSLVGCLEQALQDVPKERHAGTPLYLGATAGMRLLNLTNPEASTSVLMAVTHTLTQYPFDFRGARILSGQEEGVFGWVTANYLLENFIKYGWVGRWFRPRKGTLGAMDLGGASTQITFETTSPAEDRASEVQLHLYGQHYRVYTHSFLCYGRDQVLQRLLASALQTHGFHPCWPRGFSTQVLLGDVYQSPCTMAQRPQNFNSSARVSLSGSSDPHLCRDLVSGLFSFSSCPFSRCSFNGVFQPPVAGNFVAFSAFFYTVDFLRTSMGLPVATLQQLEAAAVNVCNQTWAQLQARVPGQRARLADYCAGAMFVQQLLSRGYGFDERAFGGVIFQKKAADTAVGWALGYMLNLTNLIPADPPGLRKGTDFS
Method: as §2

Human ENTPD1 = biological target: T3, Human ENTPD1 (Homo sapiens, UniProt P49961); test: Cross reactivity: FACS binding to human ENTPD1 expressing NIH/3T3 cells; conditions: NIH/3T3-ENTPD1 cells, 50 nM antibody
T3 construct: expressed in transfected cells; host or cells: NIH/3T3 (retroviral transduction, FACS-sorted)
T3 sequence (P49961 1-510): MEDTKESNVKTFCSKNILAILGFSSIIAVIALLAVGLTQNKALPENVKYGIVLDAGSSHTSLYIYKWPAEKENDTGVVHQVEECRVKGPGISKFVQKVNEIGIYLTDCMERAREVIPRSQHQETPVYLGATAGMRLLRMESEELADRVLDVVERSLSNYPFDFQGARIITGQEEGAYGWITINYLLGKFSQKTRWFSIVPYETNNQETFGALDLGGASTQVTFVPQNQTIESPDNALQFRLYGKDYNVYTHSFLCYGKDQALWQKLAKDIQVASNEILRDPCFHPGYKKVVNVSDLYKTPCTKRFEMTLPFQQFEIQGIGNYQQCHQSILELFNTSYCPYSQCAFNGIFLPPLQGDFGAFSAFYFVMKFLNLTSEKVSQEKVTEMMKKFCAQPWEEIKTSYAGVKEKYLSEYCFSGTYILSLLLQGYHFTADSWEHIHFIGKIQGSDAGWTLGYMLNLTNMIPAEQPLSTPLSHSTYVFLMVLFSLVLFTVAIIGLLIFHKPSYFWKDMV
Method: as §1
(§3) Cross reactivity Human ENTPD1 (NP_001767) expressing NIH/3T3 cells were generated using a retroviral transduction approach. 72 hrs post transduction, engineered cells were stained with the anti-Human CD39/ENTPD1 APC-conjugated Antibody (R&D systems, Minneapolis, Minn.) and live cells that expressed human ENTPD1 were separated from the rest of the population via fluorescence activated cell sorting. […]

[2] = tested on: human ENTPD2 engineered B16LM3 clone B5; test: Human ENTPD2 engineered B16LM3 clone B5 model, dose response with anti-PD-1 Ab; assay type: in vivo
From the text: This model was derived from the B16LM3 melanoma model, where endogenous mouse ENTPD2 expression was knocked out via a transient electroporation of CAS9 protein with CRISPR guide RNA sequences against mouse ENTPD2, and human ENTPD2 was overexpressed using a retroviral transduction approach.
Once tumors reached approximately 35-50 mm^3, mice were randomized according to tumor volume into treatment groups (n=8 per group). […] All doses were adjusted to individual mouse body weights.

NIH/3T3 cells = test: Cross reactivity: FACS binding to NIH/3T3 control cells; conditions: 50 nM antibody
Method: as §1, §3

[3] = biological target: T4, recombinant human ENTPD2 (residues 29-462) (Homo sapiens, UniProt Q9Y5L3); test: Biochemical human ENTPD2 functional assay (Transcreener ADP2 TR-FRET); conditions: FIG. 15
T4 construct: residues 29-462 of human or cyno ENTPD2 were cloned into expression vector; GP67 signal peptide (N); made in house; host or cells: High Five (Trichoplusia ni) insect cells, baculovirus
T4 sequence (Q9Y5L3 29-462): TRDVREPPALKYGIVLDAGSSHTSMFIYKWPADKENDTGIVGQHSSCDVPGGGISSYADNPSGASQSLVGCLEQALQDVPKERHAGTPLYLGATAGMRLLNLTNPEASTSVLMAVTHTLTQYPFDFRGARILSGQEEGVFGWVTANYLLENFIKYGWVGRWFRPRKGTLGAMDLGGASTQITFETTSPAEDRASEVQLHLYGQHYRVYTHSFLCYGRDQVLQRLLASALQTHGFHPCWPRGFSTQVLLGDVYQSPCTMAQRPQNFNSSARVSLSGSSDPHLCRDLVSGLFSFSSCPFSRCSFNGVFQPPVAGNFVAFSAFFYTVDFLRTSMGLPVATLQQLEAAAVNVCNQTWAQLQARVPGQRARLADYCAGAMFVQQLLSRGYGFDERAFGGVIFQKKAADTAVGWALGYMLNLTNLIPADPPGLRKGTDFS
From the text: Biochemical and cell-based functional assays were developed in-house to understand functional impact of anti-ENTPD2 Abs against purified extracellular domain of ENTPD2 (residues 29-462), as well as against the fully intact protein in the context of the native cell-based conformation. ENTPD2 hydrolyzes ATP to ADP, which can subsequently be detected using the HTRF Transcreener ADP2 TR-FRET Red Assay (BellBrook Labs, Madison, Wis.) where ENTPD2-produced ADP would compete with the ADP Tracer for binding to the anti-ADP-Tb antibody. The resulting signal is inversely proportional to the concentration of ADP in the sample.
To evaluate activity of anti-ENTPD2 Abs in the ENTPD2 biochemical assay, anti-ENTPD2 Abs and recombinant ENTPD2 (residues 29-462) were diluted in reaction buffer (50 mM HEPES, pH 7.1, 10 mM MgCl2, 0.01% BSA) to the desired concentration. 4 μL per well of the ENTPD2 solution and 2 μL per well of the Anti-ENTPD2 Ab solution were transferred into a ProxiPlate (PerkinElmer, Waltham, Mass.) and incubated for 30 min at room temperature. Reaction was then initiated via addition of 2 μl of ATP (final assay concentration of 1 μM), and the sample was incubated for 25 min at room temperature. […]
HTRF signal (Emission at 620 nm and 665 nm) was assessed in both assays using the Envision plate reader in HTRF mode (Perkin Elmer, Waltham, Mass.). HTRF ratio was determined using the following formula: HTRF ratio=R=Emission at 665 nm/Emission at 620 nm×10,000. Subsequently % Residual Activity and % Inhibition were determined as follows:
Where R0% is the HTRF ratio of the negative control (0% enzyme activity), and R100% is the HTRF ratio of the positive control (100% enzyme activity). Data were analyzed in Microsoft Excel and graphed using GraphPad's Prism 7.0 software and IC50 values were obtained using non-linear regression, log (agonist) vs. response-variable slope (four parameters) analysis.

ENTPD2 = biological target: T5, ENTPD2 (Homo sapiens, UniProt Q9Y5L3); test: Hybridoma mAb screen: cell-based assay for inhibition of ATP hydrolysis by ENTPD2; conditions: hybridoma-derived mAbs
T5 sequence (Q9Y5L3 1-495): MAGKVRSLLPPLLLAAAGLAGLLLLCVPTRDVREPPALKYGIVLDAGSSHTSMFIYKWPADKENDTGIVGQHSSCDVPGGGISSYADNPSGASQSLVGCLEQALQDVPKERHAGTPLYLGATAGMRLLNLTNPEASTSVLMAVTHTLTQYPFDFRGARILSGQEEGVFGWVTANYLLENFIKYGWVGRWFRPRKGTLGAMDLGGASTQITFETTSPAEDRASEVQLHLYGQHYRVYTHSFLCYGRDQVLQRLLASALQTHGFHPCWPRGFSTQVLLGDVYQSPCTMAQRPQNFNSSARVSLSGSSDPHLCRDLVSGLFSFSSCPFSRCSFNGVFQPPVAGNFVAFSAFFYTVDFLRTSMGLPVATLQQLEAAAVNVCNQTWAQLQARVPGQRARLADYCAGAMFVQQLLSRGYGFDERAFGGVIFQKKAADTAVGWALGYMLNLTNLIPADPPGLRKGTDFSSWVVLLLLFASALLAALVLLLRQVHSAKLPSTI
From the text: Hybridoma-derived mAbs were screened in a cell-based assay for inhibition of ATP hydrolysis by ENTPD2.

[4] = Day 7, mAb 10 mg/kg dosed D1, no anti-PD-1 Ab

B1: mAb6: humanized anti-human ENTPD2 antibody from mAb16; VH SEQ ID NO: 70, VL SEQ ID NO: 74 (antibody, V domains shown)
VH: QVQLQESGPGLVKPSQTLSLTCTVSGYSITSGYYWNWIRQHPGKGLEWMGYISYDADNNYNPSLKNRITISRDTSKNQFSLKLSSVTAADTAVYYCAGGYYRYGLGSYSGSYYYVMDYWGQGTTVTVSS
VL: DTQMTQSPSSLSVSVGDRATITCKASQSVDYEGHSYMNWYQQKPGKAPKLLIYAASNLESGVPSRFSGSGSGTDFTLTISSVQPEDFATYYCQQSNEDPPTFGGGTKLEIK
Mouse ENTPD2
  BIACore KD: No binding
H520 cells
  Apparent FACS binding at 50 nM: No binding
[1]
  ka: 290000 M⁻¹ s⁻¹
  kd: 0.01 s⁻¹
Human ENTPD2
  ka: 350000 M⁻¹ s⁻¹
  kd: 0.00026 s⁻¹
Human ENTPD1
  Apparent FACS binding at 50 nM: No binding
[2]; 0.1 mg/kg i.v. day 1, combination with anti-PD-1 Ab fixed dose 10 mg/kg, Day 7
  ΔT/ΔC: 41.0%
[2]; 1 mg/kg i.v. day 1, combination with anti-PD-1 Ab fixed dose 10 mg/kg, Day 7
  ΔT/ΔC: 27.3%
[2]; 10 mg/kg i.v. day 1, combination with anti-PD-1 Ab fixed dose 10 mg/kg, Day 7
  ΔT/ΔC: 29.2%
[2]; [4]
  Host Response Survival (alive/total): 8/8
  Host Response Δ body weight: −0.1%
  Tumor Response ΔT/ΔC: 60.0%
[2]; as single agents, i.v. day 1
  anti-tumor efficacy: No significant anti-tumor efficacy
NIH/3T3 cells
  Apparent FACS binding at 50 nM: No binding

B2: mAb17: hybridoma-derived lead inhibitory anti-human ENTPD2 mAb; VH/VL DNA SEQ ID NO: 234/238 (antibody, V domains shown)
VH: EVQLQQFGAELVKPGASVKISCKASGYTFTDYNMDWVKQSHGKSLEWIGDINPKYDISTYNQQFKGKATLTVDKSSSTAYMELRSLTSEDTAVYYCARRGFFLYYGINYYYFDVWGAGTTVTVSS
VL: QIVLTQSPAIMSASLGEEITLTCSASSSVSYIHWYQQKSGTSPTLLIYSTSNLASGVPSRFSGSGSGTFYSLTISSVEAEDAADYYCHQWSSYPWTFGGGTKLEIK
[3]
  inhibition of the catalytic activity of recombinant human ENTPD2: potently inhibit
ENTPD2
  inhibition of ATP hydrolysis by ENTPD2: lead inhibitory mAbs
